Test results reported in article PMC5385842 (Science signaling, 2016).

Biological target: the molecule itself
Assay: two-colour single-particle tracking

B1: pre-B cell receptor (pre-BCR) on the surface of 697 cells (complex)
chain 1: GSASAPTLFPLVSCENSPSDTSSVAVGCLAQDFLPDSITFSWKYKNNSDISSTRGFPSVLRGGKYAATSQVLLPSKDVMQGTDEHVVCKVQHPNGNKEKNVPLPVIAELPPKVSVFVPPRDGFFGNPRKSKLICQATGFSPRQIQVSWLREGKQVGSGVTTDQVQAEAKESGPTTYKVTSTLTIKESDWLGQSMFTCRVDHRGLTFQQNASSMCVPDQDTAIRVFAIPPSFASIFLTKSTKLTCLVTDLTTYDSVTISWTRQNGEAVKTHTNISESHPNATFSAVGEASICEDDWNSGERFTCTVTHTDLPSPLKQTISRPKGVALHRPDVYLLPPAREQLNLRESATITCLVTGFSPADVFVQWMQRGQPLSPEKYVTSAPMPEPQAPGRYFAHSILTVSEEEWNTGETYTCVVAHEALPNRVTERTVDKSTEGEVSADEEGFENLWATASTFIVLFLLSLFYSTTVTLFKVK
chain 2: QPVLHQPPAMSSALGTTIRLTCTLRNDHDIGVYSVYWYQQRPGHPPRFLLRYFSQSDKSQGPQVPPRFSGSKDVARNRGYLSISELQPEDEAMYYCAMGARSSEKEEREREWEEEMEPTAARTRVP
chain 3: LLRPTAASQSRALGPGAPGGSSRSSLRSRWGRFLLQRGSWTGPRCWPRGFQSKHNSVTHVFGSGTQLTVLSQPKATPSVTLFPPSSEELQANKATLVCLMNDFYPGILTVTWKADGTPITQGVEMTTPSKQSNNKYAASSYLSLTPEQWRSRRSYSCQVMHEGSTVEKTVAPAECS
chain 4: LWMHKVPASLMVSLGEDAHFQCPHNSSNNANVTWWRVLHGNYTWPPEFLGPGEDPNGTLIIQNVNKSHGGIYVCRVQEGNESYQQSCGTYLRVRQPPPRPFLDMGEGTKNRIITAEGIILLFCAVVPGTLLLFRKRWQNEKLGLDAGDEYEDENLYEGLNLDDCSMYEDISRGLQGTYQDVGSLNIGDVQLEKP
chain 5: ARSEDRYRNPKGSACSRIWQSPRFIARKRGFTVKMHCYMNSASGNVSWLWKQEMDENPQQLKLEKGRMEESQNESLATLTIQGIRFEDNGIYFCQQKCNNTSEVYQGCGTELRVMGFSTLAQLKQRNTLKDGIIMIQTLLIILFIIVPIFLLLDKDDSKAGMEEDHTYEGLDIDQTATYEDIVTLRTGEVKWSVGEHPGQE
With B1 the koff was 1.14 s⁻¹ and the “stoichiometry N” value was 2.
